The record followed here is doi:10.1101/413294 (bioRxiv, 2018).

In one data set the target is C3b (human, UniProt P01024). The experiment in a line: SPR.
The data set “SAXS” concerns the molecule itself. Briefly: SAXS.

Sequence of C3b (P01024 23-667, chain 1 of 2): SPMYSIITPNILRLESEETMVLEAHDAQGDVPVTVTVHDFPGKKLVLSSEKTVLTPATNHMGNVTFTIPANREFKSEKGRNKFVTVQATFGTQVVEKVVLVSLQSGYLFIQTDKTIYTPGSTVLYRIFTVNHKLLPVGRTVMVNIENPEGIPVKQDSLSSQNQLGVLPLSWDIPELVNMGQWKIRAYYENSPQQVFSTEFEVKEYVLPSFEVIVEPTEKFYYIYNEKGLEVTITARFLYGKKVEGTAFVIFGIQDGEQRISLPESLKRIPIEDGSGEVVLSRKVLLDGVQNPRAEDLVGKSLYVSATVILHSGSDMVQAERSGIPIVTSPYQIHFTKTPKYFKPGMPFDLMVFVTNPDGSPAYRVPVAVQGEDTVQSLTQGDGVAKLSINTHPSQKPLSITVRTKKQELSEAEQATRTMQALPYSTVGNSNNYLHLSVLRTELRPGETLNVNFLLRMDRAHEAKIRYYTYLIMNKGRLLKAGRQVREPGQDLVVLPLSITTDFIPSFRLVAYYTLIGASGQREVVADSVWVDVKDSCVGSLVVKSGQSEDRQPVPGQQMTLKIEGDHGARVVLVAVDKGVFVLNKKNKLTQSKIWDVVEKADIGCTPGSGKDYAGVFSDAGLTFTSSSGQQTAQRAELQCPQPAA
Sequence of C3b (P01024 749-1663, chain 2 of 2): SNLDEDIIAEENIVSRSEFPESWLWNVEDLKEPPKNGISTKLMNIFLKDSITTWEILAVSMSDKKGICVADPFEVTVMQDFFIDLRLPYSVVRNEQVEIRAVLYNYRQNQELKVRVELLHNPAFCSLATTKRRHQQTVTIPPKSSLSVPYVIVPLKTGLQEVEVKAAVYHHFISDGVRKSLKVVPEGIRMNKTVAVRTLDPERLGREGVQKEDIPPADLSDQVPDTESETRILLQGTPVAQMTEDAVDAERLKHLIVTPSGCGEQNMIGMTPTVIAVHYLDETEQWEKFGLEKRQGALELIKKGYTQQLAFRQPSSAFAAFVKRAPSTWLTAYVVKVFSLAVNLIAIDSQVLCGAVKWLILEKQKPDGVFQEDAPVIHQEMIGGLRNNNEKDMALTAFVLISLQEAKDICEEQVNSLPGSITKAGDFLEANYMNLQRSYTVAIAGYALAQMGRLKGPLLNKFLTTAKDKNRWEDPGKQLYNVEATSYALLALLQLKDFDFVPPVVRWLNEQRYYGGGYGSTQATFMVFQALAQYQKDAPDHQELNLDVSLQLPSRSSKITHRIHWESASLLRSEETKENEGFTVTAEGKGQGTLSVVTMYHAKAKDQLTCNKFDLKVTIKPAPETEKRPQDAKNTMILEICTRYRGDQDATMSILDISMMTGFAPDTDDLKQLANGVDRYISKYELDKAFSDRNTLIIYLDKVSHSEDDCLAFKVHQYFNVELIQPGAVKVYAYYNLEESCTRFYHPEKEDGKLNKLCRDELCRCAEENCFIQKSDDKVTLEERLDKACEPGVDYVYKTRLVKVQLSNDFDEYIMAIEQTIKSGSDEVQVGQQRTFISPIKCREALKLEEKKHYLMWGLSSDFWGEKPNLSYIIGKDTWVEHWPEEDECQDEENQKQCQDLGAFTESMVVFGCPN

B1: FH_(19-20), the C-terminal part of factor H (SCR 19-20), recombinant (domain or fragment)
chain: KDSTGKCGPPPPIDNGDITSFPLSVYAPASSVEYQCQNLYQLEGNKRITCRNGQWSEPPKCLHPCVISREIMENYNIALRWTAKQKLYSRTGESVEFVCKRGYRLSSRSHTLRTTCWDGKLEYPTCAKR
Consider B1, for which the binding result with C3b was “binds”.

B2: factor H-related protein 2 (FHR-2), recombinant (natural protein)
chain: EAMFCDFPKINHGILYDEEKYKPFSQVPTGEVFYYSCEYNFVSPSKSFWTRITCAEEGWSPTPKCLRLCFFPFVENGHSESSGQTHLEGDTVQIICNTGYRLQNNENNISCVERGWSTPPKCRSTISAEKCGPPPPIDNGDITSFLLSVYAPGSSVEYQCQNLYQLEGNNQITCRNGQWSEPPKCLDPCVISQEIMEKYNIKLKWTNQQKLYSRTGDIVEFVCKSGYHPTKSHSFRAMCQNGKLVYPSCEEK
For B2, in the data set with C3b, the binding result is “binds”.

B3: factor H-related protein 1 (FHR-1), recombinant (natural protein)
chain: EATFCDFPKINHGILYDEEKYKPFSQVPTGEVFYYSCEYNFVSPSKSFWTRITCTEEGWSPTPKCLRLCFFPFVENGHSESSGQTHLEGDTVQIICNTGYRLQNNENNISCVERGWSTPPKCRSTDTSCVNPPTVQNAHILSRQMSKYPSGERVRYECRSPYEMFGDEEVMCLNGNWTEPPQCKDSTGKCGPPPPIDNGDITSFPLSVYAPASSVEYQCQNLYQLEGNKRITCRNGQWSEPPKCLHPCVISREIMENYNIALRWTAKQKLYLRTGESAEFVCKRGYRLSSRSHTLRTTCWDGKLEYPTCAKR
B3: the “stoichiometry N” value in “SAXS” amounted to 2.

B4: factor H-related protein 5 (FHR-5), recombinant (natural protein)
chain: EGTLCDFPKIHHGFLYDEEDYNPFSQVPTGEVFYYSCEYNFVSPSKSFWTRITCTEEGWSPTPKCLRMCSFPFVKNGHSESSGLIHLEGDTVQIICNTGYSLQNNEKNISCVERGWSTPPICSFTKGECHVPILEANVDAQPKKESYKVGDVLKFSCRKNLIRVGSDSVQCYQFGWSPNFPTCKGQVRSCGPPPQLSNGEVKEIRKEEYGHNEVVEYDCNPNFIINGPKKIQCVDGEWTTLPTCVEQVKTCGYIPELEYGYVQPSVPPYQHGVSVEVNCRNEYAMIGNNMITCINGIWTELPMCVATHQLKRCKIAGVNIKTLLKLSGKEFNHNSRIRYRCSDIFRYRHSVCINGKWNPEVDCTEKREQFCPPPPQIPNAQNMTTTVNYQDGEKVAVLCKENYLLPEAKEIVCKDGRWQSLPRCVESTAYCGPPPSINNGDTTSFPLSVYPPGSTVTYRCQSFYKLQGSVTVTCRNKQWSEPPRCLDPCVVSEENMNKNNIQLKWRNDGKLYAKTGDAVEFQCKFPHKAMISSPPFRAICQEGKFEYPICE
Regarding B4, the binding result with C3b was “binds”.

B5: Factor H (FH), plasma purified (natural protein)
chain: EDCNELPPRRNTEILTGSWSDQTYPEGTQAIYKCRPGYRSLGNVIMVCRKGEWVALNPLRKCQKRPCGHPGDTPFGTFTLTGGNVFEYGVKAVYTCNEGYQLLGEINYRECDTDGWTNDIPICEVVKCLPVTAPENGKIVSSAMEPDREYHFGQAVRFVCNSGYKIEGDEEMHCSDDGFWSKEKPKCVEISCKSPDVINGSPISQKIIYKENERFQYKCNMGYEYSERGDAVCTESGWRPLPSCEEKSCDNPYIPNGDYSPLRIKHRTGDEITYQCRNGFYPATRGNTAKCTSTGWIPAPRCTLKPCDYPDIKHGGLYHENMRRPYFPVAVGKYYSYYCDEHFETPSGSYWDHIHCTQDGWSPAVPCLRKCYFPYLENGYNQNYGRKFVQGKSIDVACHPGYALPKAQTTVTCMENGWSPTPRCIRVKTCSKSSIDIENGFISESQYTYALKEKAKYQCKLGYVTADGETSGSITCGKDGWSAQPTCIKSCDIPVFMNARTKNDFTWFKLNDTLDYECHDGYESNTGSTTGSIVCGYNGWSDLPICYERECELPKIDVHLVPDRKKDQYKVGEVLKFSCKPGFTIVGPNSVQCYHFGLSPDLPICKEQVQSCGPPPELLNGNVKEKTKEEYGHSEVVEYYCNPRFLMKGPNKIQCVDGEWTTLPVCIVEESTCGDIPELEHGWAQLSSPPYYYGDSVEFNCSESFTMIGHRSITCIHGVWTQLPQCVAIDKLKKCKSSNLIILEEHLKNKKEFDHNSNIRYRCRGKEGWIHTVCINGRWDPEVNCSMAQIQLCPPPPQIPNSHNMTTTLNYRDGEKVSVLCQENYLIQEGEEITCKDGRWQSIPLCVEKIPCSQPPQIEHGTINSSRSSQESYAHGTKLSYTCEGGFRISEENETTCYMGKWSSPPQCEGLPCKSPPEISHGVVAHMSDSYQYGEEVTYKCFEGFGIDGPAIAKCLGEKWSHPPSCIKTDCLSLPSFENAIPMGEKKDVYKAGEQVTYTCATYYKMDGASNVTCINSRWTGRPTCRDTSCVNPPTVQNAYIVSRQMSKYPSGERVRYQCRSPYEMFGDEEVMCLNGNWTEPPQCKDSTGKCGPPPPIDNGDITSFPLSVYAPASSVEYQCQNLYQLEGNKRITCRNGQWSEPPKCLHPCVISREIMENYNIALRWTAKQKLYSRTGESVEFVCKRGYRLSSRSHTLRTTCWDGKLEYPTCAKR
Take B5: the binding result in the data set with C3b was “binds”.
